According to patent US20210403579A1 (DELINIA, published 2021):

T1: Mouse ST2 (mouse, UniProt P14719 27-332, limits assumed)
T1 construct: also called mouse ST2 protein
T1 sequence (looked up): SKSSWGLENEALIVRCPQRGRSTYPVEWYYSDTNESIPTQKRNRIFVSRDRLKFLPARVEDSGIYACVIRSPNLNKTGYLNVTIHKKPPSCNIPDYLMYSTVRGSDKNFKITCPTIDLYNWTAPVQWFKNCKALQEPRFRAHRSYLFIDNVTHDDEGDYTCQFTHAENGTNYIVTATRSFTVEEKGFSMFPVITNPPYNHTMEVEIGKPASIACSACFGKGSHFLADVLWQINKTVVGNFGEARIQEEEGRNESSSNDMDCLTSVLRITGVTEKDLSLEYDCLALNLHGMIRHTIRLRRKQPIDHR

T2: Human ST2 (human, UniProt Q01638 19-328, limits assumed)
T2 construct: also called human ST2 protein; Interleukin 1 receptor-like 1
T2 sequence (looked up): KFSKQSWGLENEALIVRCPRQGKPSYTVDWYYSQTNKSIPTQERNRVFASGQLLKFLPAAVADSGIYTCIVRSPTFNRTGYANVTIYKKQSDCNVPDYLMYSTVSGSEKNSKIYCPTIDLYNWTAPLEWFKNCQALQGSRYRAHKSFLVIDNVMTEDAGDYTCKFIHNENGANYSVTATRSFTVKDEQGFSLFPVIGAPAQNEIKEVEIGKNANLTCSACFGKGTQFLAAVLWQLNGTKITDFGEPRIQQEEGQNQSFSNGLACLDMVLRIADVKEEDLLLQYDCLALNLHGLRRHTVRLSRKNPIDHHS

B1: Human ST2 IgG1 Antibody 63 (antibody, V domains shown)
VH: QVQLVQSGAEVKKPGSSVKVSCKASGGTFSSDAINWVRQAPGQGLEWMGGIVPAFGTANYAQKFQGRVTITADESTSTAYMELSSLRSEDTAVYYCARSSSSWPYYYYYMDVWGKGTTVTVSS
VL: DIVMTQSPLSLPVTPGEPASISCRSSQSLLLNNGNNFIDWYLQKPGQSPQLLIYAASILQGGVPDRFSGSGSGTDFTLKISRVEAEDVGVYYCMQALQTPPTFGQGTKVEIKR
notes: IgG1, kappa; also called ST2 Antibody 63
B2: Human ST2 IgG1 Antibody 78 (antibody, V domains shown)
VH: EVQLLESGGGLVQPGGSLRLSCAASDFNFKNAWMSWVRQAPGKGLEWVSAISGNGAGTYYADSVKGRFTISRDNSKNTLYLQMNSLRAEDTAVYYCARVGETGAFDIWGQGTTVTVSS
VL: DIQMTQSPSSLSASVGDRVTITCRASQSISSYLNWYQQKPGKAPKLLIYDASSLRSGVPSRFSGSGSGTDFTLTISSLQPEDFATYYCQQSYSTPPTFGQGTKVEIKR
notes: IgG1, kappa; also called ST2 Antibody 78
B3: Human ST2 IgG1 Antibody 54 (antibody, V domains shown)
VH: EVQLLESGGGLVQPGGSLRLSCAASGFTVSSNYMSWVRQAPGKGLEWVSAISGSGGSTYYADSVKGRFTISRDNSKNTLYLQMNSLRAEDTAVYYCARGRFGSRDVWGKGTTVTVSS
VL: not shown
notes: IgG1, kappa; also called ST2 Antibody 54
B4: Human ST2 IgG1 Antibody 99 (antibody, V domains shown)
VH: EVQLLESGGGLVQPGGSLRLSCAASGFTFSDYYMNWVRQAPGKGLEWVSTISGFGESTFYADSVKGRFTISRDNSKNTLYLQMNSLRAEDTAVYYCARLGAARAFDIWGQGTTVTVSS
VL: DIQMTQSPSSLSASVGDRVTITCRASQSIGSWMAWYQQKPGKAPKLLIYAASTLQSGVPSRFSGSGSGTDFTLTISSLQPEDFATYYCQQSYTTPITFGPGTKVDIKR
notes: IgG1, kappa; also called ST2 Antibody 99
B5: Human ST2 IgG1 Antibody 70 (antibody, V domains shown)
VH: QVQLVQSGAEVKKPGSSVKVSCKASGYAFTDYFIHWVRQAPGQGLEWMGGIIPIFGTANYAQKFQGRVTITADKSTSTAYMELSSLRSEDTAVYYCARVAYGAFDIWGQGTMVTVSS
VL: EIVMTQSPATLSVSPGERATLSCRASQSVSSSYLAWYQQKPGQAPRLLIYGASTRATGIPARFSGSGSGTEFTLTISSLQSEDFAVYYCQQYNNWPLTFGGGTKVEIKR
notes: IgG1, kappa; also called ST2 Antibody 70
B6: Human ST2 IgG1 Antibody 102 (antibody, V domains shown)
VH: QVQLVQSGAEVKKPGSSVKVSCKASGYIFTRYYVNWVRQAPGQGLEWMGGIIPMFGTSNYAQKFQGRVTITADESTSTAYMELSSLRSEDTAVYYCARSSGYDSFKIDYWGQGTLVTVSS
VL: not shown
notes: IgG1, kappa
B7: Human ST2 IgG1 Antibody 76 (antibody, V domains shown)
VH: QVQLVQSGAEVKKPGSSVKVSCKASGYTFTDYYMHWVRQAPGQGLEWMGVIIPVLGAAKYAQKFQGRVTITADESTSTAYMELSSLRSEDTAVYYCAKGWGAFDIWGQGTMVTVSS
VL: EIVMTQSPATLSVSPGERATLSCRASQSVSSYLAWYQQKPGQAPRLLIYGASTRASGIPARFSGSGSGTEFTLTISSLQSEDFAVYYCQQYYSYPWTFGQGTKVEIKR
notes: IgG1, kappa; also called ST2 Antibody 76
B8: Human ST2 IgG1 Antibody 86 (antibody, V domains shown)
VH: QVQLVQSGAEVKKPGSSVKVSCKASGGTFSNYAISWVRQAPGQGLEWMGGIIPIFGTANYAQKFQGRVTITADESTSTAYMELSSLRSEDTAVYYCAKDLGGWFNLFDPWGQGTLVTVSS
VL: EIVMTQSPATLSVSPGERATLSCRASQGVSSYLAWYQQKPGQAPRLLIYGASTRATGIPARFSGSGSGTEFTLTISSLQSEDFAVYYCQQYRSFPLTFGGGTKVEIKR
notes: IgG1, kappa; also called ST2 Antibody 86
B9: Human ST2 IgG1 Antibody 107 (antibody, V domains shown)
VH: QVQLVQSGAQVKKPGASVKVSCKASGGTFSSYTISWVRQAPGQGLEWMGVIYPSGDITVYAQEFQGRVTMTRDTSTSTVYMELSSLRSEDTAVYYCARAWARYFDYWGQGTLVTVSS
VL: DIQMTQSPSSLSASVGDRVTITCQASQDISNYLNWYQQKPGKAPKLLIYDASNLQAGVPSRFSGSGSGTDFTLTISSLQPEDFATYYCQQSYSSPITFGQGTRLEIKR
notes: IgG1, kappa
B10: Human ST2 IgG1 Antibody 89 (antibody, V domains shown)
VH: EVQLLESGGGLVKPGGSLRLSCAASGFTFSSYWMSWVRQAPGKGLEWVSAISGTAINTYYADSVKGRFTISRDDSKNTLYLQMNSLKTEDTAVYYCARVRRDSSGGGAFDIWGQGTMVTVSS
VL: DIQMTQSPSSLSASVGDRVTITCRASQGISNNLNWYQQKPGKAPKLLIYAASSLQTGVPSRFSGSGSGTDFTLTISSLQPEDFATYYCQQSYSTPPTFGQGTKVEIKR
notes: IgG1, kappa; also called ST2 Antibody 89
B11: Human ST2 IgG1 Antibody 98 (antibody, V domains shown)
VH: EVQLLESGGGLVKPGGSLRLSCAASGFTFSSYWMSWVRQAPGKGLEWVSAISGTAINTYYADSVKGRFTISRDDSKNTLYLQMNSLKTEDTAVYYCARVRRDSSGGGAFDIWGQGTMVTVSS
VL: DIQMTQSPSSLSASVGDRVTITCRASQGISNNLNWYQQKPGKAPKLLIYAASSLQTGVPSRFSGSGSGTDFTLTISSLQPEDFATYYCQQSYSTPPTFGQGTKVEIKR
notes: IgG1, kappa; also called ST2 Antibody 98
B12: Human ST2 IgG1 Antibody 101 (antibody, V domains shown)
VH: QVQLVQSGAEVKKPGASVKVSCKASGYTFSTYDINWVRQAPGQGLEWVGIISPSGGWTTYAQKFQGRVTMTRDTSTSTVYMELSSLRSEDTAVYYCARVNYDILTGQGRGYYFDYWGQGTLVTVSS
VL: DIQMTQSPSSLSASVGDRVTITCQATQDIADYLNWYQQKPGKAPKLLIYKASSLESGVPSRFSGSGSGTDFTLTISSLQPEDFATYYCQQSYSTPTFGPGTKVDIKR
notes: IgG1, kappa; also called ST2 Antibody 101
B13: Human ST2 IgG1 Antibody 106 (antibody, V domains shown)
VH: QVQLVQSGAEVKKPGSSVKVSCKASGYTFTDYYIHWVRQAPGQGLEWMGGIIPIYGTANYAQKFQGRVTITADESTSTAYMELSSLRSEDTAVYYCARTNWGMDVWGQGTTVTVSS
VL: EIVMTQSPATLSVSPGERATLSCRASQGIPSNSLAWYQQKPGQAPRLLIYGTSARASGIPARFSGSGSGTEFTLTISSLQSEDFAVYYCQQYYSTPWTFGQGTKVEIKR
notes: IgG1, kappa
B14: Human ST2 IgG1 Antibody 57 (antibody, V domains shown)
VH: QVQLVQSGAEVKKPGASVKVSCKASGYTFTGYYMHWVRQAPGQGLEWMGVINPSGGSTSYAQKFQGRVTMTRDTSTSTVYMELSSLRSEDTAVYYCARGDYYYGSGSDYYYYYGMDVWGQGTLVTVSS
VL: DIQMTQSPSSLSASVGDRVTITCRASQGVTSWLAWYQQKPGKAPKLLIYAASTLQSGVPSRFSGSGSGTDFTLTISSLQPEDFATYYCQQANSFPLTFGGGTKVEIKR
notes: IgG1, kappa; also called ST2 Antibody 57
B15: Human ST2 IgG1 Antibody 83 (antibody, V domains shown)
VH: EVQLLESGGGLVKPGGSLRLSCAASGFTFSSYWMSWVRQAPGKGLEWVSAIGTAGDTYYPGSVKGRFTISRDDSKNTLYLQMNSLKTEDTAVYYCAILRRDKVWPFDYWGQGTLVTVSS
VL: DIQMTQSPSSLSASVGDRVTITCRASQSISSHLHWYQQKPGKAPKLLIYAASSLQSGVPSRFSGSGSGTDFTLTISSLQPEDFATYYCQQSYSSPVTFGGGTKVEIKR
notes: IgG1, kappa; also called ST2 Antibody 83

Legend:
Mouse ST2 = molecular target: T1, Mouse ST2; assay: SPR (Carterra), antibody immobilized, ST2 analyte, 1:1
Procedure: (§1) Binding of the reformatted human ST2 antibodies to the human and mouse ST2 proteins was evaluated by surface plasmon resonance (SPR), using a high throughput antibody screening and characterization platform from Carterra (Salt Lake City, Utah).

Human ST2 = molecular target: T2, Human ST2; assay: as above
Procedure: as §1

Row | Binder | Kd (Mouse ST2) | koff (Mouse ST2) | kon (Mouse ST2) | Kd (Human ST2) | koff (Human ST2) | kon (Human ST2)
1 | B1 | 2400 nM | 0.15 s⁻¹ | 62000 M⁻¹ s⁻¹ | – | – | –
2 | B2 | 744 nM | 0.13 s⁻¹ | 180000 M⁻¹ s⁻¹ | – | – | –
3 | B3 | 2700 nM | 0.13 s⁻¹ | 50000 M⁻¹ s⁻¹ | – | – | –
4 | B4 | 419 nM | 0.098 s⁻¹ | 230000 M⁻¹ s⁻¹ | – | – | –
5 | B5 | 3900 nM | 0.13 s⁻¹ | 33000 M⁻¹ s⁻¹ | – | – | –
6 | B6 | – | – | – | 270 nM | 0.065 s⁻¹ | 240000 M⁻¹ s⁻¹
7 | B7 | 778 nM | 0.14 s⁻¹ | 180000 M⁻¹ s⁻¹ | – | – | –
8 | B8 | 507 nM | 0.098 s⁻¹ | 190000 M⁻¹ s⁻¹ | – | – | –
9 | B9 | – | – | – | 465 nM | 0.062 s⁻¹ | 130000 M⁻¹ s⁻¹
10 | B10 | 989 nM | 0.1 s⁻¹ | 100000 M⁻¹ s⁻¹ | – | – | –
11 | B11 | 975 nM | 0.12 s⁻¹ | 120000 M⁻¹ s⁻¹ | – | – | –
12 | B12 | – | – | – | 590 nM | 0.11 s⁻¹ | 190000 M⁻¹ s⁻¹
13 | B13 | – | – | – | 616 nM | 0.15 s⁻¹ | 240000 M⁻¹ s⁻¹
14 | B14 | 3100 nM | 0.16 s⁻¹ | 51000 M⁻¹ s⁻¹ | – | – | –
15 | B15 | 438 nM | 0.063 s⁻¹ | 140000 M⁻¹ s⁻¹ | – | – | –
